System: MS2 coat protein
Assay: apparent KD of MS2 coat protein; designed switch direction (-1 OFF switch, 1 ON switch): -1; higher = weaker reporter binding
Summary of the method: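 For each design, the apparent KD is the median over clusters of curves fitted to normalised cluster fluorescence. Clusters held RNA switches with common flanks, transcribed on Illumina chips by stalled E. coli RNA polymerase. These were titrated with SNAP-549-labelled MS2 coat protein, doubling from 0.7 or 1.5 nM to 3 µM, without input, with 200 uM small-molecule ligand, or with an oligonucleotide input.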

[1] = input ligand: microRNA oligo, concentration not stated
[2] = Eterna round: R95, input ligand: FMN 200 uM
[3] = Eterna round: R95, input ligand: microRNA oligo, concentration not stated
[4] = Eterna round: R95, input ligand: none

| Sequence | apparent KD of MS2 coat protein (input ligand: FMN 200 uM) [µM] | apparent KD of MS2 coat protein [1] [µM] | apparent KD of MS2 coat protein (input ligand: none) [µM] | apparent KD of MS2 coat protein [2] [µM] | apparent KD of MS2 coat protein [3] [µM] | apparent KD of MS2 coat protein [4] [µM] |
| --- | --- | --- | --- | --- | --- | --- |
| UCGACGUCGUCAGGAUAUAGUCUUAAUGUCAUGCUUUUGUUCGUACAUGAGGAUCACCCAUGUGGCUAGAAGGGACUAAAGAUU [JR_ExcNG2_Sub015] (Eterna round: R96, puzzle: Exclusion NG 2) | 0.0123 | 0.0101 | 0.0158 |  |  |  |
| CGUACUAACACGAAAGUGUUAGUACAAUAAGCUUGUGAAACAUGAGGAUCACCCAUGUCCUCAUAAGCUCGUCUUAA [salish99_TOv2_r3_006] (puzzle: Sensor v3, turn-off variant 2) |  |  |  | 0.0141 | 0.268 | 0.0121 |
| UUCGUGCAGCUUUGCUGUACGCGUACAUGAGGAUCACCCAUGUAGGAUAUGGUAGGCUUUGCUUACUAGAAGGAUAGUGUGAUC [JL EXNG3 1.30] (Eterna round: R96, puzzle: Exclusion NG 3) | 0.137 | 0.123 | 0.0887 |  |  |  |
| GUAGAGUAAGGAUAUUGUGAAUAGGAUAGAAUGGUUAGAAACGAGAAGGUACAUGAGGAUCACCCAUGUAAUGU [Excluse me!!!! 22 - Jieux - Exclusion 4] (puzzle: Exclusion 4) |  |  |  | 0.0241 | 0.0221 | 0.0244 |
| AAAAGAGGAGGAUAUGCAAACAAUGUAAAAGUGAAAGUAAAACAUGAGGAUCACCCAUGUAGAAGGCCUGAAAA [nah] (puzzle: Exclusion 2) |  |  |  | 0.02 | 0.0204 | 0.0202 |
| AAAAGGCGAGGAUAUACAGACCUCGGAAAAUCAAAGCAGAGACAUGAGGAUCACCCAUGUAGAAGGCGCAACAA [Geerbiorer] (Eterna round: R97, puzzle: Exclusion 2) | 0.0208 |  | 0.0159 |  |  |  |
| GGGAACGUAGGAUAUACAUGAGGAUCACCCAUGUGAGGAAGGAGUAGGAAGCGUGGAAGUAGAAGGACGGAGAG [JR_Exclu3_Sub074] (puzzle: Exclusion 3) |  |  |  | 0.0406 | 0.0315 | 0.0464 |
| UCUUUCAUUGUGAGGAUAUGCCCAAAUAAAAGCGGGCAGAAGGCACAUGAGGAUCACCCAUGUCCUGCGGUUUU [salish99_bmx4_r4_149] (Eterna round: R97, puzzle: Brourd's mod of Exclusion 4) | 0.177 |  | 0.0407 |  |  |  |
| ACGCCUCCUGUUAGGAUAUGCAUCGGGCUUCCGCAGCAGAAGGAACAUGAGGAUCACCCAUGUCAAAUAAAAUC [Raleed] (puzzle: Brourd's mod of Exclusion 4) |  |  |  |  | 0.017 |  |
| ACAAGCUUUUUGCUCGGGUACAUGAGGAUCACCCAUGUUUGUGUUUAUUGAGGUUGUGUUGUCGUGCGCUGCAGGUU [JR_SV3TOV1_Sub077] (puzzle: Sensor v3, turn-off variant 1) |  |  |  | 0.0593 | 0.0387 | 0.0665 |
| AAAUCGGAGGAGGAUAUGGUACAGGAAACGGUGCCAGAAGGUUUCACAUGAGGAUCACCCAUGUCAAAUAGCGA [EX6 #59] (Eterna round: R97, puzzle: Exclusion 6) | 0.0213 |  | 0.0203 |  |  |  |
| CCUGUGUAAGGAUAUGACAAUGGUAUCUUCGGAUACCAUUGUCAGAAGGUACAUGAGGAUCACCCAUGUAACAC [Ex4-3: 13] (puzzle: Exclusion 4) |  |  |  |  | 0.0148 |  |
| CAAGUGCCGGAAGGAUAUCAGCGAUGUCACGCUUGAGAAGGUCUGUGCACAUGAGGAUCACCCAUGUCCGCCAGACUCCUUAAC [Eternabot solution 21] (Eterna round: R96, puzzle: Exclusion NG 1) |  | 0.00768 |  |  |  |  |
| AGUACGAUGCGUGCUGACAUGCGUCGUGCAGCAGGUGAUACAUGAGGAUCACCCAUGUCCUCAUUUGCUCGUCUUGU [Mat - Sensor v3 - Turn-off var 2 - D18] (puzzle: Sensor v3, turn-off variant 2) |  |  |  | 0.0372 | 0.257 | 0.0361 |
| GAUCAACAUGAGGAUCACCCAUGUGAGGAUAUGAUACUAUGUACUUCGGUACAUAGUAUCAGAAGGCAUGUGGA [Ex1-3: 76] (puzzle: Exclusion 1) |  |  |  |  | 0.162 |  |
| AACUAGGCAGGAUAUACAUGAGGAUCACCCAUGUGCCGAUACAAAGGGACUAACAGAGGUAGAAGGGCCUAGAA [ChP 13.04.2015 #1] (puzzle: Exclusion 3) |  |  |  | 0.1 | 0.0362 | 0.0478 |
| ACGCGAUAUGGCGUAACGCGACAUGAGGAUCACCCAUGUAACGAGGAUAUGAUCUCGAGAGAGGGUCAGAAGGCGUUACAAUAU [Eternabot solution 23] (Eterna round: R96, puzzle: Exclusion NG 3) | 0.13 | 0.0707 | 0.0743 |  |  |  |

| Sequence | apparent KD of MS2 coat protein (input ligand: FMN 200 uM) [µM] | apparent KD of MS2 coat protein [1] [µM] | apparent KD of MS2 coat protein (input ligand: none) [µM] | apparent KD of MS2 coat protein [2] [µM] | apparent KD of MS2 coat protein [3] [µM] | apparent KD of MS2 coat protein [4] [µM] |
| --- | --- | --- | --- | --- | --- | --- |
| UCCUUACUUGAGGAUCACCCAAGUCAGGAUAUACACCAGAAUAAAUCCCAGCCCUGGCGUAGAAGGGACGGGUG [Esesle] (Eterna round: R97, puzzle: Exclusion 1) | 0.023 |  | 0.0251 |  |  |  |
| CGGUUGUGAGGAUAUACAUGAGGAUCACCCAUGUCCAUCCUUUCGGUAACGAUAGAACGUAGAAGGCGCACCGU [Eternabot (L2) Solution 55] (Eterna round: R97, puzzle: Exclusion 3) | 0.0244 |  | 0.016 |  |  |  |
| AAACUACUAGGAUAUACAACGGUGUCCUAACUACUAAGAAAACAUGAGGAUCACCCAUGUAGAAGGAGUAGUGA [Lauslabe] (Eterna round: R96, puzzle: Exclusion 2) |  | 0.0286 |  |  |  |  |
| AUCAGUCGAGGAUAUACGAUCGUGCUUCGGCACGUAAGAUCACAUGAGGAUCACCCAUGUAGAAGGCGACUGAU [Mod 8 - Jieux - Exclusion 2] (Eterna round: R97, puzzle: Exclusion 2) | 0.463 |  | 0.0304 |  |  |  |
| GGUUGGCGAGGAUAUACAUGAGGAUCACCCAUGUGAGAGAAAAAAGUGAGGAAGAAAAGUAGAAGGCGUUGACG [salish99_ex3_r3_052] (puzzle: Exclusion 3) |  |  |  | 0.0662 | 0.0483 | 0.0428 |
| UUAAUUAAUUUAAUAUAAGAUCACAUGAGGAUCACCCAUGUAUAGGAUAUCAGCUCGUGUAGAGCUGAGAAGGAUACAUAAUAU [ExNG3/2-B3] (Eterna round: R96, puzzle: Exclusion NG 3) | 0.105 | 0.161 | 0.155 |  |  |  |
| UGAUUGAUUAACAGAUUAUACAUGAGGAUCACCCAUGUAGGUCCUACGUGCCCUUUAUGCAGCUCGUCUUAUUCCCA [Sensor-V1 #70] (Eterna round: R97, puzzle: Sensor, turn-off variant 1) | 0.0536 |  | 0.05 |  |  |  |
| CACCGUUACUGAGGAUAUCCUACAUGAGGAUCACCCAUGUAAUAAAUGAGAAUUUCGGAUGUAUUGGAGAAGGCAGAAAUCGGC [Ostricism 62 - Jieux - Exclusion NG 2] (Eterna round: R96, puzzle: Exclusion NG 2) | 0.0527 | 0.0484 | 0.0584 |  |  |  |
| CCGGAACAUGAGGAUCACCCAUGUCAGGAUAUGAAUAAAUCGUCGAUAGACGAUAAUCUCAGAAGGGACACCGG [Mat - Exclusion 1 - Eli Mod - D27] (Eterna round: R97, puzzle: Exclusion 1) | 0.0245 |  | 0.0242 |  |  |  |
| UAACAAAUUGUCAGGAUAUCAAUCCCGGCCCAGAUUGAGAAGGGACAUGAGGAUCACCCAUGUAUGAUUCUCAA [jl-ex4-4.51 ViennaUCT mod] (Eterna round: R97, puzzle: Brourd's mod of Exclusion 4) | 0.0654 |  | 0.0319 |  |  |  |
| UUACGGCGGAGAGGAUAUCCGAAAGGAAGUGUAGGAGAAGGCUCCAGUUGUACAUGAGGAUCACCCAUGUGAUCCUUUCCGAAA [PowerStrip EXNG 1.25] (Eterna round: R96, puzzle: Exclusion NG 1) | 2.04 | 0.0797 | 0.126 |  |  |  |
| UUAUUACGAGGAUAUCGUUUUUAUCACAUGAGGAUCACCCAUGUUGUUUAUGUUUCGUUUCGAGAAGGCGUUUGUU [JR_E5_Sub066] (puzzle: Exclusion 5) |  |  |  |  | 0.0244 |  |
| AUGUGGGUACGAAGGUGUAGAUUGAGCGUACGUUCUGGAACAUGAGGAUCACCCAUGUCGCUUUUUGCUCGUCUUAU [JR_SV3TOV2_Sub035] (puzzle: Sensor v3, turn-off variant 2) |  |  |  | 0.0251 | 0.0478 | 0.0241 |
| GGCAUGUAAGGAUAUGUGAAGGGAAGGAGAGGGAGAGGGAAGCAGAAGGUACAUGAGGAUCACCCAUGUAAGGG [AK-MS2ROC-r4-exclusion4-5.1] (Eterna round: R97, puzzle: Exclusion 4) | 0.203 |  | 0.108 |  |  |  |
| UCUUAUUGAGGAUAUACAGAUUAUUACAUGAGGAUCACCCAUGUUCUUCAAUGUAUAUAUGUAGAAGGCAGAGGAU [Mat - Exclusion 5 - JL Mod - D12] (Eterna round: R97, puzzle: Exclusion 5) | 0.217 |  | 0.0686 |  |  |  |
| AGUAACUAUCACGAAAGUGAUAGUUACAAUAGCAAGUGAACAUGAGGAUCACCCAUGUCCUCAUUUGCUCGUCUUAU [Sensor 3 - 20] (puzzle: Sensor v3, turn-off variant 2) |  |  |  | 0.0161 | 0.632 | 0.0136 |
| ACAUGAGGAUCACCCAUGUACAGGGUUUAGUUUCAUCGUUUGAAGGAUAUACUCCGUUAGUUGUCGUAGAAGGUCACAGUUUGG [JR_ExcNG3_Sub007] (Eterna round: R96, puzzle: Exclusion NG 3) | 0.179 | 0.128 | 0.178 |  |  |  |

From the supplement of paper PMC9170038
